Measurements from patent US20240092844.

Test system: KLF6-CDK200 RTF 8 phosphate-contact mutant 8 phosphate-contacting Arg to Gln (Homo sapiens)
Assay: cell_activity
Settings: on-target activity reduced 12%; only CDKN1C upregulated in RNA-seq

TTGAAACTGAAAATACTACATTATGCTA (double strand) [CDKN1C target 200]
binding signal (% of unmodified CDK200): 88
